Here are results for 5 molecules from US6214569A, “Methods for screening for inhibitors of Alzheimer β-peptide filament formation” (President and Fellows of Harvard College, priority 1997, dated 2001).

For experiment [1], the target named is T1, Aβ1-42 (Homo sapiens, UniProt P05067). The experiment can be described thus: Aβ filament formation quantitated by electron microscopy (filament crossovers). The experiment is classed as biochemical. Particulars: molar ratio 4:1, 18 hours. As for the experimental part:
At 18 hours, filaments were applied to carbon-coated Formvar on 200 mesh copper grids, dried, negatively stained with 3% uranyl acetate and visualized in a JEOL-100CX electron microscope. Many small and a few large filaments were visible in the electron micrograph and are representative of the products of this polymerization reaction.
The degree of filament formation was analyzed using electron microscopy. The reaction mixture was diluted with water or buffer. A Formvar-coated copper electron microscope grid was touched briefly to a droplet of the reaction mixture, allowing the filaments to stick to the Formvar plastic film. This procedure was also performed with Formvar which was precoated with carbon prior to the sticking of the filaments to the surface. The filaments were then stained with either a solution of uranyl acetate or sprayed ("shadowed") with a heavy metal such as platinum to allow their visualization.
The Aβ1-42 peptide was incubated in the presence of purified Apolipoproteins E2, E3 and E4 and α1 -ACT, ApoAI and ApoAII at a molar ratio of 4:1, as described in Examples 1 and 2. Electron microscopic examination of the reaction products was used to quantitate the amount of Aβ filament formation from the reaction of Aβ with ApoE3, ApoE4 or α1 -ACT. Five randomly chosen electron micrographs of each reaction product after 18 hours of incubation as in Examples 1 and 2 were analyzed by counting the number of crossovers that the filaments underwent with each other. This provides a measure of both the number and length of the amyloid filaments per unit area of the grid. […] The formation of Aβ filaments was inhibited when ApoE4 was incubated with Aβ in the presence of ApoE2 and equimolar amounts of ApoE4 and ApoE2 were used. Reducing the amount of Aβ filament formed to levels produced by the control protein, BSA (see FIG. 3).

Experiment [2] deals with T2, α1 -ACT (Homo sapiens, UniProt P01011).
T2 sequence (P01011 24-423): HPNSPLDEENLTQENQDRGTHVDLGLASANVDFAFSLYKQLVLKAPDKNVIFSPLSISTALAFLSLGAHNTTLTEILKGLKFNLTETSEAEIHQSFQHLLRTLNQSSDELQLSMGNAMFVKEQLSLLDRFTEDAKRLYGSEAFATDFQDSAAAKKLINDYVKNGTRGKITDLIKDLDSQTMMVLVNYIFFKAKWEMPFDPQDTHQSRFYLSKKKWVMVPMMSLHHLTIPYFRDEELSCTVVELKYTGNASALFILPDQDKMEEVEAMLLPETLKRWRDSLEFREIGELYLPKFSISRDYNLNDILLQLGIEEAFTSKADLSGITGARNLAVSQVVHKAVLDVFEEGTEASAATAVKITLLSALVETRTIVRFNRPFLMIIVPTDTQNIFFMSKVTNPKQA
Particulars: disclosed in U.S. Ser. No. 08/179,574; cited from earlier work.

Experiment [3] addresses T2, α1 -ACT. Particulars: disclosed in U.S. Ser. No. 08/179,574; cited from earlier work. This is another data set of the same source.
The subject of another experiment is human cortical neurons. Briefly: Neurotoxicity of Aβ filaments formed with promoting factors, MTT assay (Example 4). The experiment is classed as cell-based. The note with it: applied day 12, MTT day 16. As for the experimental part: Certain promoters of the assembly of Aβ filaments of amyloid filaments formed in vitro also result in these filaments being neurotoxic. This was determined by using fetal human cortical tissue from 18-22 week gestation were used for this study. The protocol obtaining postmortem fetal tissue complied with all federal guidelines for federal research. The cortical cell culture were prepared as follows. The frontal and temporal lobes were removed from fetal brain. Cells were disassociated in calcium and magnesium free Hank's balanced salt solution containing 0.2% […] for 10 minutes at room temperature, and subsequently disassociated in serum-containing Dulbecco's Modified Eagle Medium (D-MEM) with DNase (0.2 mg/ml) for three times. The cells were plated onto laminin (10 μg/ml) coated 96-well plate ([…]) in a neuronbasal medium supplemented with B27 (Gibco), 2 mM glutamine and 1x antibiotic antimycotic solution and kept in a humidified 5% CO2 atmosphere. […]
The products of the reactions shown in FIG. 3 were both applied to two or three sister cultured wells on day 12. Cell viability was evaluated by morphological criteria and colorimetric MTT (Tetrazolium) on day 16. […] The plates were read on a BT 1000 microreader, using a test wavelength of 550 nm, a reference wavelength of 650 nm. The plates were routinely read within 20 minutes of addition of DMSO.
(Formazan colour is commonly taken as a measure of viable cells.)

Experiment [4] relates to primary human cortical neurons. The experiment can be described thus: Promotion of Aβ1-42 neurotoxicity by pathological chaperones, MTT assay (Example 12). The experiment is classed as cell-based. Particulars: Aβ1-42 80 μM with 0.4 μM protein, 48 hours at 22° C.; MTT on day 4. As for the experimental part: Biosynthetic Aβ1-42 (80 μM) was incubated with ACT (CalBiochem), purified human apoE and individual control protein (0.4 μM) in 100 μl of 10 μM Tris-HCl, pH 7.0 for 48 hours at 22° C. The 12.5 μl of each reaction product was then added to 14 days old primary human cortical neurons in culture. The cell viability was measured by a colorimetric MTT (Sigma) assay on day 4. Data are expressed ±S.E.M. in FIGS. 7-9. ACT and apoE4 induced a 2- and 4-fold increase in neurotoxicity of Aβ1-42, respectively. […] Since Aβ1-42 is prone to self-aggregate into filaments, only aliquots of each preparation of Aβ1-42 devoid of filaments, as judged by electron microscopy, were used for experiments.
Method of cell culture: The cortical neuron cultures were prepared as follows. Frontal lobes of brain were removed from an electively terminated human fetus on gestational age of 18-21 weeks. Cortical cells were dissociated in serum-free medium containing 0.2% trypsin (Sigma) and 25 μg/ml DNase I (Sigma) and plated 4×10^4 cells per well (96-well plate, Falcon) precoated with 10 μg/ml laminin (Gibco). The cells were cultured in DMEM (Gibco) supplemented with 10% fetal calf serum (Gibco) and 2 mM glutamine. Cultures were kept at 37° C. in a 7% CO2 atmosphere. After day 4 in vitro, non-neuronal cell division was halted by exposure to 10^-5 M cytosine arabinoside. […]

Experiment [5] addresses T1, Aβ1-42. The experiment can be described thus: Aβ filament assembly monitored by light scattering. The experiment is classed as biochemical. The note with it: Aβ1-42 80 μM, molar ratio 200:1, light scattering. Here is the method:
Biosynthetic Aβ1-42 was incubated at a concentration of 80 μM in 100 μl of 10 μM Tris-HCl; pH 7.0 at 22° C. for 8, 24 and 48 hours. Assembly of Aβ into high molecular weight filamentous structures was monitored by light scattering at […]. Light scattering increases linearly according to the size and number of filaments formed. The results are shown in FIG. 1 and indicate that Aβ peptide spontaneously forms amyloid filaments, starting after about 8 hours of incubation; the rate of formation levels off after about 24 hours. The Aβ1-42 was incubated, as described in Example 1, in the presence or absence of α1 -antichymotrypsin or a control protein (BSA) at a molar ratio of 200:1. Filament assembly was monitored by light scattering. The results are shown in FIG. 2 and indicate that α1 -ACT results in the rate of filament formation being enhanced about ten-fold over the controls. Formation of filaments was essentially complete after about 8 hours.

“Also recorded” adds a separate entry of the source.

T1 sequence (P05067 672-713): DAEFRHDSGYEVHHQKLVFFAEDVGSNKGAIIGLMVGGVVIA

For the molecule ApoAI: Apolipoprotein AI, the “promotion of Aβ filament formation (in words)” value (“promotion” for short) in the experiment with Aβ1-42 [1] is “inactive”.

In the case of ApoAII: Apolipoprotein AII, the “promotion” value with Aβ1-42 [1] was “inactive”.

As for “Aβ1-28: peptide corresponding to amino acids 1-28 of the N-terminal of Aβ peptide”, the “effect on the ability of α1-ACT to inhibit chymotrypsin” value in the experiment with α1 -ACT [2] is “suppress the ability of α1 -ACT to inhibit chymotrypsin”. Moreover, in the experiment with α1 -ACT [3], the “complex formation with α1-ACT” value was “form stable complexes”.

As for “Aβ: Alzheimer's β-peptide, 39-42 amino acid peptide; biosynthetic Aβ1-42 used in the examples [reference compound]”, in the experiment with human cortical neurons, the “neurotoxicity of the reaction mixture of Aβ plus the substance” value is given as “neurotoxic”.

B1: α1 -ACT: protease inhibitor α1-antichymotrypsin, amyloid associated protein (protein, UniProt P01011 24-423, looked up)
Alpha-1-antichymotrypsin: HPNSPLDEENLTQENQDRGTHVDLGLASANVDFAFSLYKQLVLKAPDKNVIFSPLSISTALAFLSLGAHNTTLTEILKGLKFNLTETSEAEIHQSFQHLLRTLNQSSDELQLSMGNAMFVKEQLSLLDRFTEDAKRLYGSEAFATDFQDSAAAKKLINDYVKNGTRGKITDLIKDLDSQTMMVLVNYIFFKAKWEMPFDPQDTHQSRFYLSKKKWVMVPMMSLHHLTIPYFRDEELSCTVVELKYTGNASALFILPDQDKMEEVEAMLLPETLKRWRDSLEFREIGELYLPKFSISRDYNLNDILLQLGIEEAFTSKADLSGITGARNLAVSQVVHKAVLDVFEEGTEASAATAVKITLLSALVETRTIVRFNRPFLMIIVPTDTQNIFFMSKVTNPKQA
Consider B1, for which the “neurotoxicity of the reaction mixture of Aβ plus the substance” value with human cortical neurons is reported as “greatest neurotoxicity”. Moreover, the “increase in neurotoxicity of Aβ1-42” value in experiment [4] stood at 2 fold. Besides, the “promotion” value in the experiment with Aβ1-42 [1] is listed as “promote the formation of Aβ filaments”. In the experiment with Aβ1-42 [5], the “enhancement of the rate of Aβ filament formation over the controls” value is reported as “at least ten; also recorded: about ten”.
